Source: patent US20130064837A1 (University of California, published 2013)

Key:
[1] = target: T1, mouse integrin β8 (mouse, UniProt Q0VBD0 22-767, limits assumed); test: antibody binding, cell surface staining, flow cytometry (mouse/human chimeric β8 constructs)
T1 construct: also called itgb8; M itgb8
T1 sequence (looked up): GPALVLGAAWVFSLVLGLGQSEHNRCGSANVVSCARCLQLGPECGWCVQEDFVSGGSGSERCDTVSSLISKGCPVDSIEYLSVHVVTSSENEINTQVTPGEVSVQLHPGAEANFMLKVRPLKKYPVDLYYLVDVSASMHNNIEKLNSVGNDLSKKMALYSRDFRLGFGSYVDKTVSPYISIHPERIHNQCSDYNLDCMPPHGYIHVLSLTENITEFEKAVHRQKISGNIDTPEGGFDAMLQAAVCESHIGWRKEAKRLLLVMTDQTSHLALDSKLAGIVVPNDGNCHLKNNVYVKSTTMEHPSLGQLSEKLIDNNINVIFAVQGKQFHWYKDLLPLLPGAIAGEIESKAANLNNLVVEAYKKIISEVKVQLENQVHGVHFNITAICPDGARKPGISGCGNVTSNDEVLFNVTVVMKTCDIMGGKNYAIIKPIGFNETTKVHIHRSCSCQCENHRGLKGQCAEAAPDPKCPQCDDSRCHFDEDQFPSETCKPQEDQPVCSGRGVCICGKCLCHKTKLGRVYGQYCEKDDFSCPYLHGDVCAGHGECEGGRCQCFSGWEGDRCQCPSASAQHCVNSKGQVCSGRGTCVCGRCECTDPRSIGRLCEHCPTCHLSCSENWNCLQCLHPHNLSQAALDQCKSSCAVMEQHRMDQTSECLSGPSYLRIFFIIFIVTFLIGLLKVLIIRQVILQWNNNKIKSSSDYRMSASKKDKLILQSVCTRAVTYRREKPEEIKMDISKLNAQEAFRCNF
Excerpt: (§1) Chimeric integrin β8 constructs, which swapped mouse sequences into human ITGB8 were used to localize the 37E1B5 binding epitope. The epitope was localized by antibody binding, cell surface staining, and detection by flow cytometry. The 37E1B5 epitope is encompassed within amino acids 74-180 of human integrin β8. 37E1B5 binds to human, but not to mouse β8. Therefore, at least one of the 9 non-conservative amino acid differences or 7 minor amino acid differences (indicated by + in the middle line of the sequence) are included in the binding epitope. These domains reflect portions of what are known in the field as the Psi, hybrid and the alpha1 helix of the Beta-I domain of the integrin β8 subunit, and are found on the surface of the molecule.

[2] = target: T2, human integrin β8 (human, UniProt P26012 43-769); test: antibody binding, cell surface staining, flow cytometry
T2 construct: whole, on cells; also called ITGB8; H ITGB8
T2 sequence (P26012 43-769): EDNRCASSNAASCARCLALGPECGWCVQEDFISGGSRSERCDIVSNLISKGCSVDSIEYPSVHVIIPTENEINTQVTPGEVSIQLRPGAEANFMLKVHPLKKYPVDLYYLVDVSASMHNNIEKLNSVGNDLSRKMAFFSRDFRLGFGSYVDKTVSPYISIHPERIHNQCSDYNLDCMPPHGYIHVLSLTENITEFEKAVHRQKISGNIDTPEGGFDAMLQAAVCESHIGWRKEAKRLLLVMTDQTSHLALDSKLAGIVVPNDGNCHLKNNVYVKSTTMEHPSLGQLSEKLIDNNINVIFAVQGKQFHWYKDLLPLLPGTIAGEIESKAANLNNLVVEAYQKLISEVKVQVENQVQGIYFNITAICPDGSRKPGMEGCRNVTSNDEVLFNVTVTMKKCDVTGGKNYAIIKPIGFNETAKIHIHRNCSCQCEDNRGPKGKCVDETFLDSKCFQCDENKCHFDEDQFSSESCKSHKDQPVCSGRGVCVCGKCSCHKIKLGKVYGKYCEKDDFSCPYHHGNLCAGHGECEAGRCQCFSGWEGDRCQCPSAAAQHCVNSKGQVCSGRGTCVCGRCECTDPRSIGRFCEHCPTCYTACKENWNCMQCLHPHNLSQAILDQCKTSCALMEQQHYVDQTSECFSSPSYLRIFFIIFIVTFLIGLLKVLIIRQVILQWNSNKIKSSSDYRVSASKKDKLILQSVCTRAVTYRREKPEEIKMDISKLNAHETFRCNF
Excerpt: as §1

[3] = target: human integrin αvβ8 (human, UniProt P06756 31-1048; P26012 43-769); test: cell staining and flow cytometry on primary human articular chondrocytes
Chain of human integrin αvβ8 (P06756 31-1048, chain 1 of 2): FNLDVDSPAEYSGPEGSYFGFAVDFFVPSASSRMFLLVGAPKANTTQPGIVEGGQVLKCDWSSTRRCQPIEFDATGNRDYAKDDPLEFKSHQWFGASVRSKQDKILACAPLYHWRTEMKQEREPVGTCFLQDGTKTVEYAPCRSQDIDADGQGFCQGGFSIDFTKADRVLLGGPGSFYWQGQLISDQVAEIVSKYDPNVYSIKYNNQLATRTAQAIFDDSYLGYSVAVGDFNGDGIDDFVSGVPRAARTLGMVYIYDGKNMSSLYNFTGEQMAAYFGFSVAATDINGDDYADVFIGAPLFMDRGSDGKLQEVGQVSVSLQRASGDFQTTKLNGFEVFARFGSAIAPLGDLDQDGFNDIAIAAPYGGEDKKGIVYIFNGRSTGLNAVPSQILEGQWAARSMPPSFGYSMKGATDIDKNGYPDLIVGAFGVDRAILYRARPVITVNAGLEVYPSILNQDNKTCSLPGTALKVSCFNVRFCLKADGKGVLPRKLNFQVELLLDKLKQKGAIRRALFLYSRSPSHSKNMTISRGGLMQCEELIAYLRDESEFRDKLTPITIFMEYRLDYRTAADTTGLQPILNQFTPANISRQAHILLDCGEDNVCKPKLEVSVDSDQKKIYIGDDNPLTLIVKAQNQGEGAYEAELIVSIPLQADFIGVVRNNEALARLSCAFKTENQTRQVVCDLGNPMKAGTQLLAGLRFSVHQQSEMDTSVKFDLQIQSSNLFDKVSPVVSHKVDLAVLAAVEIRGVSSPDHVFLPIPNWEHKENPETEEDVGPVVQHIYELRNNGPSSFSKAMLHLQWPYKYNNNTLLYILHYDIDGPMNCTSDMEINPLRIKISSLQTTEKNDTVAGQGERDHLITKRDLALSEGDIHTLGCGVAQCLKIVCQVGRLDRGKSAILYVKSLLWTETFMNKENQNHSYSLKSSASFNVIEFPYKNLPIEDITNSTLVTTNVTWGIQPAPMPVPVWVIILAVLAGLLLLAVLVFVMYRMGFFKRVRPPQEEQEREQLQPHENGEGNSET
Chain of human integrin αvβ8 (P26012 43-769, chain 2 of 2): as the sequence (P26012 43-769) above
Method: Adult articular cartilage was harvested from the joint space of knee from a patient undergoing elective repair of a knee for chronic osteoarthritis. Primary chondrocytes were grown to 70% confluence and the integrin receptor expression determined by cell staining and flow cytometry. The antibodies used were anti-β8 (37E1B5), and anti-β6 (E7P6). […] Primary chondrocytes were co-cultured with TMLC TGF-β reporter cells (Annes et al. (2004) J. Cell Biol. 165:723) in a TGF-β bioassay in the presence or absence of anti-β8 (37E1B5) or neutralizing anti-β6. Anti-β8 produced a robust blockade of TGF-β activation while anti-β6 produced no such effect.

B1: 37E1B5 (antibody, V domains shown)
VH: EVQLVESGGGLVQPGGSLNLSCAVSGFVFSRYWMSWVRQAPGKGLEWIGEINPDSSTINYTSSLKDKFIISRDNAKNTLYLQMNKVRSEDTALYYCACLITTEDYWGQGTSVTVSS
VL: QIVLTQSPSSMYASLGERVTIPCKASQDINSYLSWFQQKPGKSPKTLIYYANRLVDGVPSRFSGSGSGQDYSLTISSLEYEDMGIYYCLQYDEFPYTFGGGTKLEIK
notes: Three versions were made in CHO cells: mouse IgG1, mouse IgG2a and partially humanized IgG1; also called 37E1B5 antibody; anti-β8 (37E1B5)
- binding result [1]: no binding
- binding result [2]: binds
- binding result [3]: binds
